Assay results published in article PMC5493754, “Myosin 7 and its adaptors link cadherins to actin” (Nature Communications, 2017).

Assays:
[1] = target: YFP-ANKS4B_(CEN-PBM) (human) (UniProt Q8N8V4); assay: MST; YFP-fused partner constant at 100 nM, non-fluorescent protein titrated (16 two-fold dilutions); 20 mM Hepes pH 7.0, 100 mM NaCl, 1 mM EGTA, 0.5 mM TCEP, 0.05% Tween 20; Monolith NT.115
YFP-SANS_(CEN-PBM) = YFP-SANS_(CEN-PBM) (UniProt Q495M9); assay: as above
[2] = target: YFP-Harmonin-a PDZ3c (human) (UniProt Q9Y6N9); assay: as above
Myosin 7a MF1.SH3 = target: T1, Myosin 7a MF1.SH3 (human, UniProt Q13402-1 991-1692, residues 1523-1560 were deleted from MF1); assay: as above; settings: both partners purified
T1 construct: Myosin 7a, human, N-terminal MyTH4-FERM domain and SH3, residues 991-1692 of UniProt Q13402-1; residues 1523-1560 deleted; Thrombin site of the vector replaced by an SSG linker; also called M7a MF1.SH3; Myo7a MF1.SH3; source: E. coli (BL21-AI, BL21 (DE3) Rosetta or BL21-Gold (DE3)), purified (Histrap, CaptoQ, gel filtration)
T1 sequence (looked up): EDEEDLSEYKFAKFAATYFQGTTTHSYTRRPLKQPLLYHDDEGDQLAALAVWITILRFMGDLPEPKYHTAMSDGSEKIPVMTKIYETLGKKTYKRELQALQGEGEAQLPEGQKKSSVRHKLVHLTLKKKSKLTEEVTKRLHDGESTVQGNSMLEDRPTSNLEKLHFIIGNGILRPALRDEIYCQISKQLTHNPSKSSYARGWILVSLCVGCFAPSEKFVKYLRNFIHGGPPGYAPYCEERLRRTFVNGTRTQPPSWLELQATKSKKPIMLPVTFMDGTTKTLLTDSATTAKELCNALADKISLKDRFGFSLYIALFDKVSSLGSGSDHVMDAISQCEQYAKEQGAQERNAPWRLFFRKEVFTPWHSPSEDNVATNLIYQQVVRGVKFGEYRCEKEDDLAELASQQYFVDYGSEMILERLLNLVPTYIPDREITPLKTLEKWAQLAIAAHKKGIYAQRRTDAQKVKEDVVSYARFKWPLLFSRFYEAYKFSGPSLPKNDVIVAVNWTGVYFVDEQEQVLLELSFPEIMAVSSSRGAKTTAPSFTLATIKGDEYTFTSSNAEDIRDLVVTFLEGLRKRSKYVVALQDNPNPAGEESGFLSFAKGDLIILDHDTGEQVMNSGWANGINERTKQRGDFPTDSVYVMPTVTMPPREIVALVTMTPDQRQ

Myosin 7b MF1.SH3 A1128E = target: T2, Myosin 7b MF1.SH3 A1128E (human, UniProt Q6PIF6 958-1586, A1128E); assay: as above; settings: both partners purified
T2 construct: Myosin 7b, human, MF1.SH3, residues 958-1586 of UniProt Q6PIF6; also called M7b MF1.SH3 A1128E; source: E. coli, purified similarly as wild type (Histrap, CaptoQ, gel filtration)
T2 sequence: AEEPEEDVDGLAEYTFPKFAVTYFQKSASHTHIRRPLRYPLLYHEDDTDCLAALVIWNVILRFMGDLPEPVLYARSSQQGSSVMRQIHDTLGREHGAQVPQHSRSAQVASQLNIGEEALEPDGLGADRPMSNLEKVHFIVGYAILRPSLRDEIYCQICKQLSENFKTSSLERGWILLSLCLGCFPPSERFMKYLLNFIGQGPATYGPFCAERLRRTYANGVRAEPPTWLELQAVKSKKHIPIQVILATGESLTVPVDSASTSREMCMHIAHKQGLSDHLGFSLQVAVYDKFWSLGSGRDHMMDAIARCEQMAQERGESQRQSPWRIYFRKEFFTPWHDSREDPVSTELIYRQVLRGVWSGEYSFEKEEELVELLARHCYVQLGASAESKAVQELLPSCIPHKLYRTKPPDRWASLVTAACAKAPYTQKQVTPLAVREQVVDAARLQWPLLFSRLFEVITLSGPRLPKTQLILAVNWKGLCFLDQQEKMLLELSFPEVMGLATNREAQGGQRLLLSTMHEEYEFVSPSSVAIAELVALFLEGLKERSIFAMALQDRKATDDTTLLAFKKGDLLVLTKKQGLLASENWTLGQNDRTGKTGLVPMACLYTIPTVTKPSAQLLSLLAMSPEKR

Harmonin NPDZ1.PDZ2 = target: T3, Harmonin NPDZ1.PDZ2 (human, UniProt Q9Y6N9-1 1-301); assay: as above; settings: both partners purified
T3 construct: Harmonin-a1 (USH1C), human, N-terminal domain, PDZ1 and PDZ2, residues 1-301 of UniProt Q9Y6N9-1; source: E. coli BL21 (DE3) Rosetta, purified (Glutathione Sepharose 4B, size-exclusion chromatography)
T3 sequence (looked up): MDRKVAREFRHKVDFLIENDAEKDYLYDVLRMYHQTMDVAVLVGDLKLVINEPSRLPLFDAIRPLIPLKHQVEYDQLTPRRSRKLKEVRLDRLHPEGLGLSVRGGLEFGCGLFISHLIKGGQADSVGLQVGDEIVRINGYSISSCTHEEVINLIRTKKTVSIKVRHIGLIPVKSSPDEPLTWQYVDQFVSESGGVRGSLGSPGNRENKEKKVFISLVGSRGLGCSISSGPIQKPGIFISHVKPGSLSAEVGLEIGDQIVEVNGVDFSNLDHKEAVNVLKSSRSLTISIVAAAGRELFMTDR

Myosin 7b MF1.SH3 = target: T4, Myosin 7b MF1.SH3 (human, UniProt Q6PIF6 958-1586); assay: as above; settings: both partners purified
T4 construct: also called M7b MF1.SH3; Myo7b MF1.SH3; source: E. coli (BL21-AI, BL21 (DE3) Rosetta or BL21-Gold (DE3)), purified (Histrap, CaptoQ, gel filtration)
T4 sequence: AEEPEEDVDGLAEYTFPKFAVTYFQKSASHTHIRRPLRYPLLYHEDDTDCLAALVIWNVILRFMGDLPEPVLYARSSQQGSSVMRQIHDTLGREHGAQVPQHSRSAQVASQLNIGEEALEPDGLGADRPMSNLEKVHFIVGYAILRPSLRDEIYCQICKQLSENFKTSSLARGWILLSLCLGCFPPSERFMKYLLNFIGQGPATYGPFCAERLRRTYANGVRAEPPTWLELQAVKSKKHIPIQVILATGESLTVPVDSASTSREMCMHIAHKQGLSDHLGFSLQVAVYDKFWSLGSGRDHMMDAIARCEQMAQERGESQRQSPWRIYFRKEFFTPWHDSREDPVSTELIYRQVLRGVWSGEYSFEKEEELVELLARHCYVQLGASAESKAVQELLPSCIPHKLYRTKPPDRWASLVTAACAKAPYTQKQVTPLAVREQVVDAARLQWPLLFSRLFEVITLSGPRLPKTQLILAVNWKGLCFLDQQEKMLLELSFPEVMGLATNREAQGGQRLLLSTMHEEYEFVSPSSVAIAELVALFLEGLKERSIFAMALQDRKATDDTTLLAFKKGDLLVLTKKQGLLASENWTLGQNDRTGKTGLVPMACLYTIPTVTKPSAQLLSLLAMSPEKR

[3] = target: T5, Full length (FL)-harmonin (harmonin-a1) (human, UniProt Q9Y6N9-1 1-552); assay: MST; as a1 but 150 mM NaCl (for FL-Harmonin-a); YFP-fused partner constant at 100 nM, non-fluorescent protein titrated; settings: both partners purified
T5 construct: Harmonin-a1 (USH1C), human, residues 1-552 of UniProt Q9Y6N9-1; also called FL-harmonin-a; source: E. coli BL21 (DE3) Rosetta, purified (Glutathione Sepharose 4B, size-exclusion chromatography)
T5 sequence (looked up): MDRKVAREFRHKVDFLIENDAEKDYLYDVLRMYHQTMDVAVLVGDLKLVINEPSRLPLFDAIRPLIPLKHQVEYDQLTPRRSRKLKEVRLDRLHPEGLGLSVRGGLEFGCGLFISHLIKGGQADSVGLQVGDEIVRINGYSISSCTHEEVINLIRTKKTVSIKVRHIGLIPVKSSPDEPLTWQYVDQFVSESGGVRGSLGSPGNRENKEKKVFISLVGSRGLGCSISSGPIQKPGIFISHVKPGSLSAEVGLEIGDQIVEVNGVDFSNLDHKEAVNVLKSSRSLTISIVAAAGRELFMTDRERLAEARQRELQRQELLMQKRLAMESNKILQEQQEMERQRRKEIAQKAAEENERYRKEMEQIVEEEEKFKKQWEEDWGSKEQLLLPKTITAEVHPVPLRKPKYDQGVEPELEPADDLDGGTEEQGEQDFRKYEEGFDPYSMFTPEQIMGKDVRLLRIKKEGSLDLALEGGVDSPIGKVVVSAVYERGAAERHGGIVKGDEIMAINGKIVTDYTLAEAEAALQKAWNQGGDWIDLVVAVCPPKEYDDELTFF

Row | Molecule | Kd (Myosin 7a MF1.SH3) | Kd (Myosin 7b MF1.SH3 A1128E) | Kd (Harmonin NPDZ1.PDZ2) | Kd (Myosin 7b MF1.SH3) | further results
1 | Myosin 7b MF1.SH3 K1194E-K1195E R1171E-R1172E (from UniProt Q6PIF6 958-1586) (domain or fragment) |  |  |  |  | Kd [1]: 3.1 µM; Kd (YFP-SANS_(CEN-PBM)): 6.6 µM
2 | Myosin 7b MF2 R1921E-F1923V (from UniProt Q6PIF6 1605-2116) (domain or fragment) |  |  |  |  | Kd [2]: > 100 µM
3 | YFP-ANKS4B_(CEN-PBM) (domain or fragment, human, UniProt Q8N8V4 259-417, looked up, ANKS4B, human, CEN regions, SAM domain and PBM, residues 259-417 of UniProt Q8N8V4; source: E. coli (BL21-AI, BL21 (DE3) Rosetta or BL21-Gold (DE3)), purified (Histrap, CaptoQ, gel filtration); not shown: YFP, N-terminal, kept) SVHHESILNRPGLGSIVFRRNRISSPEDISDSKREFGFKLPSELLQRQGASEADEGAADEEGEENGLKDDLPWDDDEVEWEEDVVDATPLEVFLLSQHLEEFLPIFKREQIDLEALLLCSDEDLQSIQMQLGPRKKVLNAINRRKQVLQQPGQLVDTSL | 4.9 ± 0.7 µM | 13.1 ± 0.7 µM | 0.009 µM | 4.3 ± 0.8 µM | 
4 | YFP-SANS_(CEN-PBM) (domain or fragment, UniProt Q495M9 300-461, looked up, The full-length SANS gene was synthesised; source: E. coli (BL21-AI, BL21 (DE3) Rosetta or BL21-Gold (DE3)), purified (Histrap, CaptoQ, gel filtration); not shown: YFP, N-terminal, kept) DSGHDSLFTRPGLGTMVFRRNYLSSGLHGLGREDGGLDGVGAPRGRLQSSPSLDDDSLGSANSLQDRSCGEELPWDELDLGLDEDLEPETSPLETFLASLHMEDFAALLRQEKIDLEALMLCSDLDLRSISVPLGPRKKILGAVRRRRQAMERPPALEDTEL | 0.13 ± 0.02 µM | 18.2 ± 2.8 µM | 0.017 µM | 5.4 ± 1.6 µM | 
5 | YFP-FL-harmonin-ΔCter (domain or fragment, human, UniProt Q9Y6N9-1 1-542, looked up, Harmonin-a1 (USH1C), human, residues 1-542 of UniProt Q9Y6N9-1; also called ^YFPFL ΔCter; source: E. coli BL21 (DE3) Rosetta, purified (Glutathione Sepharose 4B, size-exclusion chromatography)) MDRKVAREFRHKVDFLIENDAEKDYLYDVLRMYHQTMDVAVLVGDLKLVINEPSRLPLFDAIRPLIPLKHQVEYDQLTPRRSRKLKEVRLDRLHPEGLGLSVRGGLEFGCGLFISHLIKGGQADSVGLQVGDEIVRINGYSISSCTHEEVINLIRTKKTVSIKVRHIGLIPVKSSPDEPLTWQYVDQFVSESGGVRGSLGSPGNRENKEKKVFISLVGSRGLGCSISSGPIQKPGIFISHVKPGSLSAEVGLEIGDQIVEVNGVDFSNLDHKEAVNVLKSSRSLTISIVAAAGRELFMTDRERLAEARQRELQRQELLMQKRLAMESNKILQEQQEMERQRRKEIAQKAAEENERYRKEMEQIVEEEEKFKKQWEEDWGSKEQLLLPKTITAEVHPVPLRKPKYDQGVEPELEPADDLDGGTEEQGEQDFRKYEEGFDPYSMFTPEQIMGKDVRLLRIKKEGSLDLALEGGVDSPIGKVVVSAVYERGAAERHGGIVKGDEIMAINGKIVTDYTLAEAEAALQKAWNQGGDWIDLVVAVCPP |  |  |  |  | Kd [3]: 2.5 µM
